Reference: article doi:10.1101/2023.03.12.532276 (bioRxiv, 2023)

Molecular target: the molecule itself
Experiment: SAXS with online size exclusion

B1: ELF3 PrLD Q7 (prion-like domain of EARLY FLOWERING 3, residues 388-625, 7 glutamines, ecotype Columbia) (domain or fragment)
chain: LLPSEFLVKPPLPHVVVKQRGDSEKTDQHKMESSAENVVGRLSNQGHHQQSNYMPFANNPPASPAPNGYCFPPQPPPSGNHQQWLIPVMSPSEGLIYKPHPGMAHTGHYGGYYGHYMPTPMVMPQYHPGMGFPPPGNGYFPPYGMMPTIMNPYCSSQQQQQQQPNEQMNQFGHPGNLQNTQQQQQRSDNEPAPQQQQQPTKSYPRARKSRQGSTGSSPSGPQGISGSKSFRPFAAVDE
B1: binds.
